# Experimental data reported in US20240116985A1, “STAPLED PEPTIDES AND METHODS THEREOF” (priority 2020, published 2024).
# Starred links: 1 amine or outer side, 2 acyl side, 3 side chain; linkers in the order of their positions; H or OH if unused. Positions of bridges follow the written chain, without caps; N, C: chain ends. Non-standard residues stand in square brackets, D forms with d. Primed or numbered codes have the meaning given here. PyrS2″ = (S)-3-amino-1-((pent-4-en-1-yloxy)carbonyl)pyrrolidine-3-carboxylic acid (stapling residue), C=CCCCOC(=O)N1CC[C@@](N[*:1])(C(=O)[*:2])C1; B5(4) = 2,2-bis(4-pentenyl)glycine = 2-amino-2-(pent-4-en-1-yl)hept-6-enoic acid (stitching residue), C=CCCCC(CCCC=C)(N[*:1])C(=O)[*:2]; B5(5) = 2,2-bis(4-pentenyl)glycine, 2-amino-2-(pent-4-en-1-yl)hept-6-enoic acid (stitching residue), C=CCCCC(CCCC=C)(N[*:1])C(=O)[*:2]; (NMe2)GlnR(3) = [NMe2]GlnR, N5,N5-dimethyl-L-glutamine, CN(C)C(=O)CC[C@H](N[*:1])C(=O)[*:2]; B5(3) = 2,2-bis(4-pentenyl)glycine (stitching residue), C=CCCCC(CCCC=C)(N[*:1])C(=O)[*:2]; Me2Asn = listed as N4-methyl-L-asparagine, CNC(=O)C[C@H](N[*:1])C(=O)[*:2]; Phe(3-CF3) = N[C@@H](Cc1cccc(C(F)(F)F)c1)C(=O)O; Phe(3-COOH) = N[C@@H](Cc1cccc(C(=O)O)c1)C(=O)O; 2F3MeF = Cc1cccc(C[C@H](N[*:1])C(=O)[*:2])c1F; Phe(2-CF3) = N[C@@H](Cc1ccccc1C(F)(F)F)C(=O)O; Phe(2-Cl) = N[C@@H](Cc1ccccc1Cl)C(=O)O; Bta = N[C@@H](Cc1csc2ccccc12)C(=O)O; Lys(iPr) = CC(C)NCCCC[C@H](N)C(=O)O; αAllylPro = C=CC[C@@]1(C(=O)O)CCCN1; tBuAla = CC(C)(C)C[C@H](N)C(=O)O; 3Thi = N[C@@H](Cc1ccsc1)C(=O)O; Cha = N[C@@H](CC1CCCCC1)C(=O)O; hSer = N[C@@H](CCO)C(=O)O; 34ClF = not defined here; Nle = CCCC[C@H](N)C(=O)O; Aib = CC(C)(N)C(=O)O
# Target: full-length beta-Catenin (Uniprot ID P35222) (Homo sapiens (Human)) (UniProt P35222)
# Assay: fluorescence polarization competition, 5FAM-TCF4 10-53 probe on full-length beta-catenin
# Target sequence in this assay (P35222 2-781 limits assumed): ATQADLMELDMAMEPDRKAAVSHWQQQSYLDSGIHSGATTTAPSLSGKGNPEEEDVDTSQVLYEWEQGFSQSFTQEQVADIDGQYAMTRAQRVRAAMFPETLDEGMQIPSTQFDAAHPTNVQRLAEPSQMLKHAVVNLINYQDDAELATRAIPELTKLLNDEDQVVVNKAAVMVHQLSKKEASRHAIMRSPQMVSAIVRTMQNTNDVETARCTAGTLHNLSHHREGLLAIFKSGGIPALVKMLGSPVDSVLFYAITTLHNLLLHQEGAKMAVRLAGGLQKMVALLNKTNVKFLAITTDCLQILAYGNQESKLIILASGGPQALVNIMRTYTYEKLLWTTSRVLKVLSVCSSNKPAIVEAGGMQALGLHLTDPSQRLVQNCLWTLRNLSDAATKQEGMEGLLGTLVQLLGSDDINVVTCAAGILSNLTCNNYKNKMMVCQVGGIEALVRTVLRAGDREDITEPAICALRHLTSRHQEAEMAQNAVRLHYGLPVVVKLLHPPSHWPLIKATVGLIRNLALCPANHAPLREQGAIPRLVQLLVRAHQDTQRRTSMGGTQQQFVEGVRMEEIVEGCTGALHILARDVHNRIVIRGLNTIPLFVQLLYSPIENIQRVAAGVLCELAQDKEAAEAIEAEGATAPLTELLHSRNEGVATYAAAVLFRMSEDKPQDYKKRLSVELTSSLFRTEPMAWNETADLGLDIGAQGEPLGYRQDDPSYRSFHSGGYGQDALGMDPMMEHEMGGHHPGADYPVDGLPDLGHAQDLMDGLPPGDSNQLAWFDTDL
row,Binder,EC50 [nM]
1,"Ac-[αAllylPro]D[Cha][B5(4)]DDLLFS[PyrS2″][Phe(2-Cl)][Bta]Q-NH2 (staple 1-4, 4-11) [I-1149]",70
2,"Ac-[αAllylPro]D[Cha][B5(5)]DDAAF[Cha][PyrS2″][Phe(2-Cl)][Bta]S-NH2 (staple 1-4, 4-11) [I-1113]",64

# Target: full-length beta-Catenin (Uniprot ID P35222) (Homo sapiens (Human)) (UniProt P35222)
# Assay: fluorescence polarization competition vs 5FAM-TCF4(10-53) on full-length beta-catenin
# Target sequence in this assay (P35222 2-781 limits assumed): as above
row,Binder,IC50 [nM]
1,"Ac-[αAllylPro]D[Cha][B5(4)]DDLLFS[PyrS2″][Phe(2-Cl)][Bta]Q-NH2 (staple 1-4, 4-11) [I-1149]",70

# Target: full-length beta-Catenin (Uniprot ID P35222) (Homo sapiens (Human)) (UniProt P35222)
# Assay: fluorescence polarization competition; competitor 5FAM-TCF4(10-53) probe on full-length beta-catenin
# Target sequence in this assay (P35222 whole entry): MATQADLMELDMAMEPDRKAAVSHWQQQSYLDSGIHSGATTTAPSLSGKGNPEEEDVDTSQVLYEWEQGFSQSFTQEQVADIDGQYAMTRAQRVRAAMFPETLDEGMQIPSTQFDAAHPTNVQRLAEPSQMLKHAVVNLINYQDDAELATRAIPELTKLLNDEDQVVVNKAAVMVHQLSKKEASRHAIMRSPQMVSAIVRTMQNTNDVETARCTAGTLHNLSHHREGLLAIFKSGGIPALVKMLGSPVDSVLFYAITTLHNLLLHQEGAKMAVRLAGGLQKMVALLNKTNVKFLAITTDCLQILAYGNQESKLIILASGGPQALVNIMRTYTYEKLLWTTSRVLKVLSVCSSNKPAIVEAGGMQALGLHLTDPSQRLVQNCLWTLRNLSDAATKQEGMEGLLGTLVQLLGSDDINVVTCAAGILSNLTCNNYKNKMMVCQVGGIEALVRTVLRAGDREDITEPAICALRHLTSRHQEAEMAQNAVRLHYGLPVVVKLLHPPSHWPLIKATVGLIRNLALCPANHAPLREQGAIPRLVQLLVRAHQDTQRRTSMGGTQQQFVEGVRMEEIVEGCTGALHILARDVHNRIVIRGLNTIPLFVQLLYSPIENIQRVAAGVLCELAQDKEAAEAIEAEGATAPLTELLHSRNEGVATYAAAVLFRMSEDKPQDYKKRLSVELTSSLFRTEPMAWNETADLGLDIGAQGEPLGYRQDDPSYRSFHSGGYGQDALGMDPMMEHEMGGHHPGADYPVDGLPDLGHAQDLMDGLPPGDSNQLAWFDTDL
row,Binder,IC50 [nM]
1,"Ac-[αAllylPro]N[Cha][B5(3)]DQ[Lys(iPr)]AFN[PyrS2″]F[Bta]T-NH2 (staple 1-4, 4-11) [I-2112]",501
2,"Ac-[αAllylPro]N[Cha][B5(4)]DQ[Lys(iPr)]AFN[PyrS2″]F[Bta]H-NH2 (staple 1-4, 4-11) [I-2109]",136
3,"Ac-[αAllylPro]N[Cha][B5(4)]DQ[Lys(iPr)]AFN[PyrS2″]F[Bta]N-NH2 (staple 1-4, 4-11) [I-2111]",180
4,"Ac-[αAllylPro]D[tBuAla][B5(4)]D[Phe(3-COOH)]A[dA]FL[PyrS2″][2F3MeF][Bta]A-NH2 (staple 1-4, 4-11; also: earlier-eluting HPLC isomer composition) [I-2098]",260
5,"Ac-[αAllylPro]D[tBuAla][B5(3)]D[Phe(3-COOH)]A[dA]FL[PyrS2″][2F3MeF][Bta][dA]-NH2 (staple 1-4, 4-11) [I-2101]",424
6,"Ac-[αAllylPro]D[tBuAla][B5(5)]D[Phe(3-COOH)]A[dA]FL[PyrS2″][2F3MeF][Bta]A-NH2 (staple 1-4, 4-11; also: later eluting HPLC isomer) [I-2099]",325
7,"Ac-[αAllylPro]N[Cha][B5(4)]DQ[Lys(iPr)]AFN[PyrS2″]F[Bta]K-NH2 (staple 1-4, 4-11) [I-2110]",88
8,"Ac-[αAllylPro]N[Cha][B5(4)]DQ[Lys(iPr)]AF[Lys(iPr)][PyrS2″]F[Bta][hSer]-NH2 (staple 1-4, 4-11) [I-2102]",273

# Target: full-length beta-Catenin (Uniprot ID P35222) (Homo sapiens (Human)) (UniProt P35222)
# Assay: fluorescence polarization competition; full-length beta-catenin + 5FAM-TCF4(10-53) probe
# Target sequence in this assay (P35222 whole entry): as above
row,Binder,EC50 [nM]
1,Ac-[αAllylPro]D[tBuAla][B5(3)]DTAA[Phe(3-CF3)]T[PyrS2″]F[Bta]S-NH2 (staple 1-4; staple 4-11 (inferred); not fully specified; printed as Ac-PL3-Asp-Npg-B5-Asp-Thr-Ala-Ala-3F3MeF-Thr-PyrS2-Phe-BztA-Ser-NH2) [I-1268],198

# Target: full-length beta-Catenin (Uniprot ID P35222) (Homo sapiens (Human)) (UniProt P35222)
# Assay: fluorescence polarization competition; 10 nM full-length beta-catenin, 10 nM 5FAM-TCF4(10-53) probe
row,Binder,IC50 [nM]
1,"Ac-[αAllylPro]N[tBuAla][B5(5)]DQ[Lys(iPr)]AF[Lys(iPr)][PyrS2″]F[Bta]Q-NH2 (staple 1-4, 4-11) [I-1653]",903
2,"Ac-[αAllylPro]D[tBuAla][B5(4)]D[Phe(3-COOH)][Aib]AF[Nle][PyrS2″][3Thi][Bta][(NMe2)GlnR(3)]-NH2 (staple 1-4, 4-11) [I-2551]",8
3,"Ac-[αAllylPro]D[tBuAla][B5(4)]D[Phe(3-COOH)]AAFL[PyrS2″][Phe(2-CF3)][Bta][MorphGln]-NH2 (staple 1-4, 4-11) [I-2541]",21
4,"Ac-[αAllylPro]D[tBuAla][B5(4)]D[Phe(3-COOH)]SAFL[PyrS2″][3Thi][Bta][tBuAla]-NH2 (staple 1-4, 4-11) [I-2195]",62
5,"Ac-[αAllylPro]D[tBuAla][B5(4)]DDAAFN[PyrS2″][3Thi][34ClF]Q-NH2 (staple 1-4, 4-11; reading uncertain; also: printed as Ac-PL3-Asp-Npg-B5-Asp-Asp-Ala-Ala-Phe-Asn-PyrS2-3Thi-34C1F-Gln-NH2) [I-2182]",5
6,"Ac-[αAllylPro]D[tBuAla][B5(4)]D[Phe(3-COOH)][Nle]AFL[PyrS2″][3Thi][Bta]V-NH2 (staple 1-4, 4-11) [I-2189]",83
7,"Ac-[αAllylPro]D[tBuAla][B5(4)]D[Phe(3-COOH)][Aib]AF[Nle][PyrS2″][3Thi][Bta][(NHEt)GlnR]-NH2 (staple 1-4, 4-11) [I-2552]",12
8,"Ac-[αAllylPro]D[tBuAla][B5(4)]D[Phe(3-COOH)]QAFL[PyrS2″][3Thi][Bta][tBuAla]-NH2 (staple 1-4, 4-11) [I-2192]",22
9,"Ac-[αAllylPro]D[tBuAla][B5(4)]D[Phe(3-COOH)]AAFF[PyrS2″][Phe(2-CF3)][Bta][MorphGln]-NH2 (staple 1-4, 4-11) [I-2543]",37
10,"Ac-[αAllylPro]D[tBuAla][B5(4)]D[Phe(3-COOH)][Me2Asn]AFL[PyrS2″][3Thi][Bta]V-NH2 (staple 1-4, 4-11) [I-2191]",16
11,"Ac-[αAllylPro]N[tBuAla][B5(5)]DQ[Lys(iPr)]AFL[PyrS2″]F[Bta][Cha]-NH2 (staple 1-4, 4-11) [I-1652]",10000
12,"Ac-[αAllylPro]D[tBuAla][B5(4)]D[Phe(3-COOH)][Me2Asn]AFL[PyrS2″][3Thi][Bta][tBuAla]-NH2 (staple 1-4, 4-11) [I-2196]",41
13,"Ac-[αAllylPro]N[tBuAla][B5(5)]DQ[Lys(iPr)]AF[Lys(iPr)][PyrS2″]F[Bta][Lys(iPr)]-NH2 (staple 1-4, 4-11) [I-1654]",2130
14,"Ac-[αAllylPro]D[tBuAla][B5(4)]D[Phe(3-COOH)]AAFF[PyrS2″][Phe(2-CF3)][Bta][Me2Gln]-NH2 (staple 1-4, 4-11) [I-2534]",21
15,"Ac-[αAllylPro]D[tBuAla][B5(4)]D[Phe(3-COOH)][Aib]AFL[PyrS2″][3Thi][Bta][tBuAla]-NH2 (staple 1-4, 4-11) [I-2194]",91
16,"Ac-[αAllylPro]D[tBuAla][B5(4)]D[Phe(3-COOH)][Nle]AFL[PyrS2″][3Thi][Bta][tBuAla]-NH2 (staple 1-4, 4-11) [I-2193]",164

# Target: full-length beta-Catenin (Uniprot ID P35222) (Homo sapiens (Human)) (UniProt P35222)
# Assay: fluorescence polarization competition; displacement of 5FAM-TCF4(10-53) from full-length beta-catenin
# Target sequence in this assay (P35222 whole entry): as above
row,Binder,IC50 [nM]
1,"Ac-[αAllylPro]D[Cha][B5(5)]DDAAF[Cha][PyrS2″][Phe(2-Cl)][Bta]S-NH2 (staple 1-4, 4-11) [I-1113]",64
